Experiment [1] concerns the target PTH receptor type-1 (PTH1R), wild-type human (human) (UniProt Q03431).
The target is the same in experiment [2]. As to the kind of experiment: radioligand binding.
A further experiment deals with COS-7 cells. Description: Secretion of PTH into conditioned medium of transfected COS-7 cells. In kind it is cell-based. The settings on record: for PTH level in conditioned medium, PTH(1-84) assay / PTH level in conditioned medium, ntPTH assay: 48 hours after transfection, mean ± SEM.

Substitutions are numbered along the chain they refer to.

Sequence of UniProt Q03431 (Q03431 27-593): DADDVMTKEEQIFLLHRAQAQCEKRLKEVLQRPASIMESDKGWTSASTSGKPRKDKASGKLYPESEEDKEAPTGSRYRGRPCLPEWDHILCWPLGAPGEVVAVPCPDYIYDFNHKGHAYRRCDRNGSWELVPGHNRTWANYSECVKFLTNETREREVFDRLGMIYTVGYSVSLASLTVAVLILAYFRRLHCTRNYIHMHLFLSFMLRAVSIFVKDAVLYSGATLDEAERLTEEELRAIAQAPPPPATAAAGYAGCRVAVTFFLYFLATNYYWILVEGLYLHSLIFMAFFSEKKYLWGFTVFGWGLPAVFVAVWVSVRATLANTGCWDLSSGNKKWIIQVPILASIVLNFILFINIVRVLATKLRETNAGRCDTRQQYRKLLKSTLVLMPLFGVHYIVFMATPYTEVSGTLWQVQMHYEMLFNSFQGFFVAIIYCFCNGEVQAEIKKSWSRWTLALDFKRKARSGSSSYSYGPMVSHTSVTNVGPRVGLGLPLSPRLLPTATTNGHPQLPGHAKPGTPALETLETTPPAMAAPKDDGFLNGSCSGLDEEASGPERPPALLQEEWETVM

Usually IC50 stands for the midpoint of a concentration-inhibition curve. Turning to [Cys25]PTH(1-34) (peptide), in experiment [1], the PLC/IP signaling EC50, IP1 in GP-2.3 cells (Cisbio IP1 assay kit) was 265 nM and the cAMP signaling EC50, Glosensor luminescence in SGS-72 cells (SaOS-2-derived) was 0.27 nM. This molecule also showed an IC50 in experiment [2] of 12.3 nM.

B1: [Cys25]PTH(1-84): mutant hormone with arginine-to-cysteine mutation at position 25 of mature PTH(1-84) (protein, UniProt P01270 32-115, looked up, variant R25C)
Parathyroid hormone: SVSEIQLMHNLGKHLNSMERVEWLCKKLQDVHNFVALGAPLAPRDAGSQRPRKKEDNVLVESHEKSLGEADKADVNVLTKAKSQ
modifications: Parathyroid hormone
With B1, in the experiment with COS-7 cells, the “PTH level in conditioned medium, PTH(1-84) assay” value is on record as 1812 ± 175 pg/mL and the “PTH level in conditioned medium, ntPTH assay” value was determined as 30.9 ± 23 pg/mL. For the same molecule, the “secretion of mutant hormone into the medium” value with COS-7 cells (transfected COS-7 cells) is listed as “efficiently secreted into the medium”.

B2: PTH(1-84): wild-type hormone expressed from plasmid encoding wild-type preproPTH in COS-7 cells (protein, UniProt P01270 32-115, looked up)
Parathyroid hormone: B1 Parathyroid hormone with C25R
modifications: Parathyroid hormone
For B2, in the experiment with COS-7 cells, the “PTH level in conditioned medium, PTH(1-84) assay” value turned out to be 1812 ± 94 pg/mL and the “PTH level in conditioned medium, ntPTH assay” value worked out at 2285 ± 277 pg/mL.

Source of the values: article PMC4580526 (Journal of bone and mineral research : the official journal …, 2015).
